Test results reported in paper PMC11961710, “Design and implementation of aerobic and ambient CO2-reduction as an entry-point for enhanced carbon fixation” (Nature Communications, 2025).

How the values were obtained:
BKACE15 = target: T1, BKACE15 (Paracoccus denitrificans, UniProt A1B802); experiment: crystal structure at […] Å (with acetyl-CoA); product inhibition measured by LC-MS with purified enzyme; type: biochemical
T1 construct: gene Pden_3578
T1 sequence (A1B802 1-310): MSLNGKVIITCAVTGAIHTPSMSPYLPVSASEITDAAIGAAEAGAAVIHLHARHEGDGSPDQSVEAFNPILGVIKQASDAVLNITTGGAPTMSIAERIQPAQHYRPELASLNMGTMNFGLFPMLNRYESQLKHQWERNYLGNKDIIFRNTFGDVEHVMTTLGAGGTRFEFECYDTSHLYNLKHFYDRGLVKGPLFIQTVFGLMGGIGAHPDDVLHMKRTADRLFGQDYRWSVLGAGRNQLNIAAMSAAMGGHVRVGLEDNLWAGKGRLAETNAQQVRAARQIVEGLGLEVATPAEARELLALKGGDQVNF

purified protein [1] = substrate: CC(=O)SCCNC(=O)CCNC(=O)[C@H](O)C(C)(C)COP(=O)(O)OP(=O)(O)OC[C@H]1O[C@@H](n2cnc3c(N)ncnc32)[C@H](O)[C@@H]1OP(=O)(O)O; experiment: purified protein; conditions: Zn2+ active site entry channel, fully occupied upon acetyl-CoA binding
purified protein [2] = substrate: O=CCC(=O)O; experiment: purified protein; type: biochemical, Paracoccus denitrificans; conditions: Zn2+ MSA must enter the active site first, before acetyl-CoA can bind

| Molecule | IC50 (BKACE15) | Km (purified protein [1]) | Km (purified protein [2]) |
| --- | --- | --- | --- |
| CC(=O)CC(=O)O [AAE, acetoacetate] | 1450 ± 160 µM |  |  |
| BKACE15 (Paracoccus denitrificans PD1222) (protein) MSLNGKVIITCAVTGAIHTPSMSPYLPVSASEITDAAIGAAEAGAAVIHLHARHEGDGSPDQSVEAFNPILGVIKQASDAVLNITTGGAPTMSIAERIQPAQHYRPELASLNMGTMNFGLFPMLNRYESQLKHQWERNYLGNKDIIFRNTFGDVEHVMTTLGAGGTRFEFECYDTSHLYNLKHFYDRGLVKGPLFIQTVFGLMGGIGAHPDDVLHMKRTADRLFGQDYRWSVLGAGRNQLNIAAMSAAMGGHVRVGLEDNLWAGKGRLAETNAQQVRAARQIVEGLGLEVATPAEARELLALKGGDQVNF |  | 110 ± 10 µM | 830 ± 90 µM |
